Experimental data as given in patent publication US10889618B2, “D-enantiomeric peptides derived from D3 and use thereof” (FORSCHUNGSZENTRUM JUELICH GMBH, priority 2012, dated 2021).
Entries after “also recorded” stand apart in the source; their conditions may differ. Non-standard residues stand in square brackets, D forms with d. No end group written: not given here.

Legend:
[1] = biological target: T1, A-beta1-42 (Homo sapiens, UniProt P05067); assay: Density gradient centrifugation (iodixanol): modulation of A-beta1-42 aggregation behavior; assay type: biochemical; conditions: for Peptide bound in fraction 12 [%]: FITC-labelled peptide, amount of dye in fraction 12 of the iodixanol gradient, estimate of binding to / precipitation of A-beta oligomers; for Effect on A-beta aggregation (distribution of A-beta over gradient fractions): 80 μM A-beta1-42, 20 μM peptide, 259,000×g, 3 h, 4° C., SDS-PAGE, silver staining
T1 construct: overlayed with 100 μl of a 80 μM A-beta1-42 solution
T1 sequence (P05067 672-713): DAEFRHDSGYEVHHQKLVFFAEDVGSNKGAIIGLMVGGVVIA
Description: The effects of the peptides described in the table on A-beta aggregation were investigated by means of density gradient centrifugation. Thus, A-beta was mixed with the respective peptide and the particles formed are separated according to size. The sample to be investigated was placed on the surface of the centrifuge tube in which a density gradient was charged, which consisted of layers of different iodixanol concentrations in this example. During the several hours of separation, the molecules sediment at different rates in the solvent, namely, more rapidly the larger the particles. The centrifugation is terminated at a suitable time point and different constituents of the sample are obtained in the various layers which are analyzed by SDS-PAGE. A-beta without addition of peptide served as control.
This changes on addition of RD2. […] Large aggregates are formed which are detectable in fractions 10-15. […] All D-enantiomeric peptides which were characterized with A-beta using the method mentioned above were labelled with FITC. The amount of dye detectable in fraction 12 was used to estimate the binding strength of the respective D3 derivative to A-beta oligomers or the oligomer precipitating effects thereof in vitro. It was shown that the peptide RD2 especially has a significant effect on A-beta aggregation compared to D3.
FIG. 1: Modulation of the A-beta1-42 aggregation behavior by RD2, analzyed by an iodixanol density gradient. The iodixanol gradient was overlayed with 100 μl of a 80 μM A-beta1-42 solution and 100 μl of a 80 μM A-beta and 20 μM RD2 mixture. The mixture was then centrifuged at 259,000×g for 3 h at 4° C. The 15 fractions (fraction 15 is the pellet boiled with the loading buffer) were harvested manually immediately after the centrifugation and analyzed by Tris-Tricin-SDS-PAGE followed by silver staining.

[2] = biological target: A-beta oligomers (Homo sapiens, UniProt P05067); conditions: D3 in higher concentrations (than 20 μM); cited from earlier work
Sequence of A-beta oligomers (P05067 672-713 limits assumed): as the sequence (P05067 672-713) above

| Substance | Peptide bound in fraction 12 [%] [1] [%] | Effect on A-beta aggregation (distribution of A-beta over gradient fractions) [1] | Precipitation of A-beta oligomers [2] |
| --- | --- | --- | --- |
| rprtrl ([dR][dP][dR][dT][dR][dL]) [NT-D3, D3 derivative, D3-N-Terminus] | 0 |  |  |
| rrptlrhthnrr ([dR][dR][dP][dT][dL][dR][dH][dT][dH][dN][dR][dR]) [RD3, D3 derivative, rational D3] | 4 |  |  |
| pnhhrrrrrttl ([dP][dN][dH][dH][dR][dR][dR][dR][dR][dT][dT][dL]) [RD1, D3 derivative, rational D3] | 3 |  |  |
| ptlhthnrrrrr ([dP][dT][dL][dH][dT][dH][dN][dR][dR][dR][dR][dR]) [RD2, D3 derivative, rational D3] | 20 | fewer A-beta oligomers could be detected in the fractions 3-9 |  |
| rprtrlhthrnr ([dR][dP][dR][dT][dR][dL][dH][dT][dH][dR][dN][dR]) [Peptide D3, D-enantiomeric D-peptide D3, parent peptide used as comparison, reference compound] | 4 | no change was apparent; also recorded: no effect | precipitates A-beta oligomers and converts them into large, amorphous and non-toxic aggregates |
| rprtrlrnr ([dR][dP][dR][dT][dR][dL][dR][dN][dR]) [Peptide D3Δhth, D3 with deletion hth] | 2 |  |  |
